The source of these data is PMC9355583, “Validation of the solution structure of dimerization domain of PRC1” (PLoS ONE, 2022).

This series concerns the molecule itself. In words: cross-linking; PEG5 cross-linker (0.1 M-1 M), protein at 20 nM and 50 nM, 50 mM PBS, 50 mM NaCl, pH 7.0, 25 °C, 30 min, read by SDS-PAGE.

B1: PRC1 dimerization domain (PRC1-DD, aa: 1-65) (domain or fragment, human, UniProt O43663-1 1-65, looked up)
chain: MRRSEVLAEESIVCLQKALNHLREIWELIGIPEDQRLQRTEVVKKHIKELLDMMIAEEESLKERL
notes: Protein Regulator of Cytokinesis 1 (PRC1), human, isoform 1 (NP_003972; full length 620 residues), N-terminal dimerization domain, residues 1-65; Cloned between NdeI and XhoI of pET-21a with a C-terminal His-tag; no cleavage of the tag is described; For NMR the protein was 15N- or 15N/13C-labelled; also called DD WT; PRC-DD; source: E. coli BL21 (DE3) or Rosseta (DE3), purified (His-Trap HP, …)
B1: the stoichiometry N (commonly a count of units in the complex or per binding partner) turned out to be 2.
